The target of the assay is BG505_B23 trimer, His-tagged (HIV-1 isolate BG505). Put plainly: SPR; ProteOn XPR36, HC30M XanTec chip; His-tagged trimer (300 to 400 RU, 1 ug/mL) captured by immobilised rabbit anti-His-tag pAb, Fab flowed as analyte at 30 ul/min for 3 min, 5 min dissociation; 1x HBS-EP+ pH 7.4 with BSA 1 mg/ml; equilibrium or kinetic (Langmuir) fits; highest concentration 2x10^-5 M, approximate upper affinity limit 1.6x10^-11 M. (SPR reads the build-up and loss of mass on a sensor chip optically.)

B1: RM_N332_07 Fab (Fab, V domains shown)
VH: QVQLQESGPGLVKPSETLSLTCAVSGASFSSFWWDWIRQPPGRGLEWIGDINGNSGSTNYNPSLKSRVTISKDASKSQFSLKLTSVTAADTAVYYCALQSVTYYEDDSGHYETEMAKFWGQGVLVTVSS
VL: QPVLTQPPSVSGAPGQRVTISCSGSSSNIGGYHVQWYQQLPGTAPKLLIYESNKRPSGISDRFSASQFGTSASLTITGLQSEDEADYYCQSYDSSVSAQVFGGGTRLTVL
As for B1, the Kd – broadly, the constant that tells how readily two partners part at equilibrium – was less than 100 nM.

B2: RM_N332_08 Fab (Fab, V domains shown)
VH: QVQLVQSGAEVKKPGSSVKVSCKASGYTFTDHYIHWVRQAPRQGLEWMGWINPYNGNTNYAQKFQGRVTLTRDTSTTTVYMELISLRSEDTAVYYCARGGEYCTGFGCFAGKGDNSLDVWGRGVLVSVSS
VL: DIVMIQTPLSLPVTPGEPASISCRSSQSLFDIEDETTYLEWFLQKPGQSPQPLIYEVSNRASGVPDRFSGSGSDTAFTLKISRVEAEDVGIYYCMQGIEYPFTFGPGTKVEIK
In turn, B2 displayed a Kd of less than 100 nM.
